Patent US20230357367A1
Where two headings read alike, the source gives them in different places.

What was measured:
Test in all cases: cell-based or functional assay
[1] = target: spike (SARS-CoV-2, BA.2) (SARS-CoV-2)
[2] = target: spike (SARS-CoV-2, BQ.1.1) (SARS-CoV-2)
[3] = target: spike (SARS-CoV-2, BN.1) (SARS-CoV-2)
[4] = target: spike (SARS-CoV-2, XBB.1.5) (SARS-CoV-2)
[5] = target: spike (SARS-CoV-2, BA.4/5) (SARS-CoV-2)
[6] = target: spike (SARS-CoV-2, BF.7.14) (SARS-CoV-2)
[7] = target: spike (SARS-CoV-2, CH.1.1) (SARS-CoV-2)
[8] = target: spike (SARS-CoV-2, BA.2.3.20) (SARS-CoV-2)
[9] = target: spike (SARS-CoV-2, BA.2.75) (SARS-CoV-2)
[10] = target: spike (SARS-CoV-2, BQ.1) (SARS-CoV-2)
[11] = target: spike (SARS-CoV-2, BA.4.6) (SARS-CoV-2)
[12] = target: spike (SARS-CoV-2, XBB.1) (SARS-CoV-2)
[13] = target: spike (SARS-CoV-2, B.1.617.2, Delta) (SARS-CoV-2)
[14] = target: spike (SARS-CoV-2, BA.2.12.1) (SARS-CoV-2)
[15] = target: spike (SARS-CoV-2, BA.2.75.2) (SARS-CoV-2)
[16] = target: spike (SARS-CoV-2, BF.7) (SARS-CoV-2)
[17] = target: spike (SARS-CoV-2, BA.1.1) (SARS-CoV-2)
[18] = target: spike (SARS-CoV-2, BA.1) (SARS-CoV-2)
[19] = target: spike (SARS-CoV-2, B.1.617.2, Delta) (SARS-CoV-2); remark: listed apart in the source
[20] = target: spike (SARS-CoV-2, B.1.617.2, Delta) (SARS-CoV-2); remark: listed apart in the source
[21] = target: spike (SARS-CoV-2, B.1.617.2, Delta) (SARS-CoV-2); remark: listed apart in the source
[22] = target: spike (SARS-CoV-2, BQ.1.1) (SARS-CoV-2); remark: listed apart in the source
[23] = target: spike (SARS-CoV-2, XBB.1.5) (SARS-CoV-2); remark: listed apart in the source
[24] = target: spike (SARS-CoV-2, B.1.617.2, Delta) (SARS-CoV-2); remark: listed apart in the source

Substance: bebtelovimab (antibody)
- EC50, pseudovirus neutralization [1]: 0.2 ng/mL
- EC80, pseudovirus neutralization [1]: 1.4 ng/mL
- EC90, pseudovirus neutralization [1]: 4.4 ng/mL
- Emax, pseudovirus neutralization (% neutralization) [1]: 99.9
- Emax, pseudovirus neutralization (% neutralization) [2]: 53
- Emax, pseudovirus neutralization, TMPRSS2-Vero E6, with isotype (% neutralization) [2]: 40.5
- Emax, pseudovirus neutralization, Vero E6, with isotype (% neutralization) [2]: 59.1
- EC50, pseudovirus neutralization [3]: 0.467 ng/mL
- EC80, pseudovirus neutralization [3]: 5.3 ng/mL
- EC90, pseudovirus neutralization [3]: 0.022 µg/mL
- Emax, pseudovirus neutralization (% neutralization) [3]: 99.4
- Emax, pseudovirus neutralization (% neutralization) [4]: 2.01
- Emax, pseudovirus neutralization, TMPRSS2-Vero E6, with isotype (% neutralization) [4]: 2.93
- Emax, pseudovirus neutralization, Vero E6, with isotype (% neutralization) [4]: 4.21
- EC50, pseudovirus neutralization [5]: 0.073 ng/mL
- EC80, pseudovirus neutralization [5]: 1.2 ng/mL
- EC90, pseudovirus neutralization [5]: 6.4 ng/mL
- Emax, pseudovirus neutralization (% neutralization) [5]: 99.8
- EC50, pseudovirus neutralization [6]: 0.22 ng/mL
- EC80, pseudovirus neutralization [6]: 1.4 ng/mL
- EC90, pseudovirus neutralization [6]: 4.1 ng/mL
- Emax, pseudovirus neutralization (% neutralization) [6]: 99.8
- Emax, pseudovirus neutralization (% neutralization) [7]: 5.32
- EC50, pseudovirus neutralization [8]: 0.012 µg/mL
- EC80, pseudovirus neutralization [8]: 0.36 µg/mL
- EC90, pseudovirus neutralization [8]: 2.6 µg/mL
- Emax, pseudovirus neutralization (% neutralization) [8]: 97.9
- EC50, pseudovirus neutralization [9]: 0.65 ng/mL
- EC80, pseudovirus neutralization [9]: 8.2 ng/mL
- EC90, pseudovirus neutralization [9]: 0.036 µg/mL
- Emax, pseudovirus neutralization (% neutralization) [9]: 99.5
- Emax, pseudovirus neutralization (% neutralization) [10]: 72.2
- EC50, pseudovirus neutralization [11]: 0.2 ng/mL
- EC80, pseudovirus neutralization [11]: 2.5 ng/mL
- EC90, pseudovirus neutralization [11]: 0.011 µg/mL
- Emax, pseudovirus neutralization (% neutralization) [11]: 99.6
- Emax, pseudovirus neutralization (% neutralization) [12]: 10.8
- EC50, live virus neutralization [13]: 4.6 ng/mL
- EC50, pseudovirus neutralization [13]: 3.8 ng/mL
- EC50, pseudovirus neutralization, TMPRSS2-Vero E6, with isotype [13]: 1.6 ng/mL
- EC50, pseudovirus neutralization, Vero E6, with isotype [13]: 0.63 ng/mL
- EC80, pseudovirus neutralization [13]: 0.023 µg/mL
- EC80, pseudovirus neutralization, TMPRSS2-Vero E6, with isotype [13]: 0.013 µg/mL
- EC80, pseudovirus neutralization, Vero E6, with isotype [13]: 4.2 ng/mL
- EC90, live virus neutralization [13]: 15.9 ng/mL
- EC90, pseudovirus neutralization [13]: 0.066 µg/mL
- EC90, pseudovirus neutralization, TMPRSS2-Vero E6, with isotype [13]: 0.043 µg/mL
- EC90, pseudovirus neutralization, Vero E6, with isotype [13]: 0.013 µg/mL
- Emax, pseudovirus neutralization (% neutralization) [13]: 99.9
- Emax, pseudovirus neutralization, TMPRSS2-Vero E6, with isotype (% neutralization) [13]: 99.7
- Emax, pseudovirus neutralization, Vero E6, with isotype (% neutralization) [13]: 99.7
- EC50, pseudovirus neutralization [14]: 0.2 ng/mL
- EC80, pseudovirus neutralization [14]: 1.2 ng/mL
- EC90, pseudovirus neutralization [14]: 3.6 ng/mL
- Emax, pseudovirus neutralization (% neutralization) [14]: 99.9
- EC50, pseudovirus neutralization [15]: 0.46 ng/mL
- EC80, pseudovirus neutralization [15]: 6.3 ng/mL
- EC90, pseudovirus neutralization [15]: 0.029 µg/mL
- Emax, pseudovirus neutralization (% neutralization) [15]: 99.5
- EC50, pseudovirus neutralization [16]: 0.11 ng/mL
- EC80, pseudovirus neutralization [16]: 1.7 ng/mL
- EC90, pseudovirus neutralization [16]: 8.5 ng/mL
- Emax, pseudovirus neutralization (% neutralization) [16]: 99.8
- EC50, pseudovirus neutralization [17]: 0.12 ng/mL
- EC80, pseudovirus neutralization [17]: 1.3 ng/mL
- EC90, pseudovirus neutralization [17]: 5.6 ng/mL
- Emax, pseudovirus neutralization (% neutralization) [17]: 99.9
- EC50, pseudovirus neutralization [18]: 0.17 ng/mL
- EC80, pseudovirus neutralization [18]: 1.8 ng/mL
- EC90, pseudovirus neutralization [18]: 7.2 ng/mL
- Emax, pseudovirus neutralization (% neutralization) [18]: 99.8
- EC80, pseudovirus neutralization, Vero E6, with isotype [19]: 3.5 ng/mL
- EC50, pseudovirus neutralization, Vero E6, with isotype [20]: 0.44 ng/mL
- EC90, pseudovirus neutralization, Vero E6, with isotype [21]: 0.012 µg/mL
- Emax, pseudovirus neutralization, Vero E6, with isotype (% neutralization) [22]: 55.6
- Emax, pseudovirus neutralization, Vero E6, with isotype (% neutralization) [23]: 0.55
- Emax, pseudovirus neutralization, Vero E6, with isotype (% neutralization) [24]: 99.7
